Assay results taken from publication PMC3879576.

How the values were obtained:
[1] = target: dimeric Bet v 1a purified from the WT Bet v 1a preparation, with cysteine incorporated at position 5 instead of the encoded tyrosine (birch) (UniProt P15494); test: SEC; Superdex 75 size exclusion chromatography (gel filtration) separating monomeric and dimeric forms
[2] = target: Bet v 1a Y5C mutant (birch) (UniProt P15494); test: as above
[3] = target: Bet v 1a Y5C mutant (birch) (UniProt P15494); test: not stated; analysis of purified Bet v 1a Y5C; method of the analysis not named; similar redox sensitivity as the dimer of the WT preparation

Substance | stoichiometry N [1] | stoichiometry N [2] | percent dimerization [3] [%]
dimeric Bet v 1a purified from the WT Bet v 1a preparation, with cysteine incorporated at position 5 instead of the encoded tyrosine (from UniProt P15494 1-160) (natural protein) | 2 |  | 
Bet v 1a Y5C mutant (from UniProt P15494 1-160) (natural protein) |  | 2 | 90
